Test results from the supplement of paper PMC10126150.
± gives the standard deviation of the averaged measurements.

Tested on: ATP
Assay: switch fluorescence ratio, 500 uM ATP over buffer (Cy3 cluster intensity, sum of 5 cycles each) (fold (ratio)); higher = stronger signal-on switching upon ATP binding; sequences stand for … in TCGTCGGCAGCGTCAGATGTGTATAAGAGACAGTTTTTTTTTTTTTTTTTTTTTTTTT…TC
Settings: aptamer strand: ATP DNA aptamer (quencher-CACCTGGGGGAGTATTGCGGAGGAAGG + anchor), 100 nM annealed; ATP concentration: 500 uM
Procedure, shortened: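 Clusters carrying Cy3-labelled switching strands on a modified Illumina MiSeq flow-cell were annealed to 100 nM quencher-labelled ATP aptamer and imaged in selection buffer. They were imaged again after 15 min with 500 uM ATP at 22 °C, over five buffer/ATP cycles with NaOH stripping and re-annealing in between. For each cluster, the fluorescence ratio is the summed Cy3 intensity of the target cycles divided by that of the buffer cycles, averaged per switch-domain sequence. Clusters outside 100-1000 RFU were left out.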
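Further: ATP exposure 15 min at 22 °C before imaging.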

| Sequence | switch fluorescence ratio |
| --- | --- |
| GTGAGGGGGG | 1.01 ± 0.013 |
| GTGAGGGTGG | 0.9695 ± 0.0093 |
| GTGAGGTATC | 1.04 ± 0.032 |
| GTGAGGTCGG | 0.968 ± 0.015 |
| GTGAGTAGGT | 0.974 ± 0.014 |
| GTGAGTCAGC | 1.06 ± 0.075 |
| GTGAGTTTGT | 1.01 ± 0.027 |
| GTGATAAAAT | 1.01 ± 0.031 |
| GTGATACAAA | 0.999 ± 0.022 |
| GTGATCCCCG | 1.006 ± 0.0041 |
| GTGATGACTT | 1.001 ± 0.0061 |
| GTGATGGATG | 0.997 ± 0.057 |
| GTGATGGTTT | 0.982 ± 0.013 |
| GTGATGTCTC | 1.008 ± 0.0091 |
| GTGATTATGG | 0.981 ± 0.028 |
| GTGATTTGCG | 1.008 ± 0.0036 |
| GTGATTTGT | 1.01 ± 0.03 |
| GTGATTTTCT | 0.998 ± 0.015 |
| GTGCAATGGC | 1.57 ± 0.18 |
| GTGCCAACGT | 0.981 ± 0.035 |
| GTGCCCTGTA | 0.9704 ± 0.0046 |
| GTGCGAATGG | 0.998 ± 0.016 |

| Sequence | switch fluorescence ratio |
| --- | --- |
| GTGCTAGCTC | 1.004 ± 0.0034 |
| GTGCTAGGTT | 0.984 ± 0.023 |
| GTGCTTAGGC | 1.06 ± 0.026 |
| GTGCTTGGGC | 0.9955 ± 0.0058 |
| GTGCTTGGGG | 0.99 ± 0.044 |
| GTGGAAAAAA | 1 ± 0.02 |
| GTGGAAAGAT | 1.01 ± 0.018 |
| GTGGAAGGTA | 0.991 ± 0.011 |
| GTGGAATGGT | 0.986 ± 0.024 |
| GTGGACAGGG | 1 ± 0.013 |
| GTGGAGGCGC | 0.989 ± 0.023 |
| GTGGAGTTGG | 1.31 ± 0.44 |
| GTGGATAAAA | 0.972 ± 0.029 |
| GTGGATATTT | 0.986 ± 0.015 |
| GTGGATGTAC | 1.06 ± 0.05 |
| GTGGATTGCG | 0.9975 ± 0.0075 |
| GTGGCAAAGT | 0.9678 ± 9.7e-05 |
| GTGGCACTGT | 0.989 ± 0.019 |
| GTGGCCAACC | 1.02 ± 0.0022 |
| GTGGCGGGAG | 0.997 ± 0.017 |
| GTGGCGGTTT | 0.995 ± 0.044 |
| GTGGCGTAGA | 1.02 ± 0.012 |

| Sequence | switch fluorescence ratio |
| --- | --- |
| GTGGCGTGCT | 0.976 ± 0.045 |
| GTGGCTCAGG | 1.05 ± 0.054 |
| GTGGCTGGG | 0.988 ± 0.038 |
| GTGGGAAGTC | 0.965 ± 0.04 |
| GTGGGAAGTG | 0.975 ± 0.025 |
| GTGGGACATA | 0.999 ± 0.044 |
| GTGGGATGAT | 0.9663 ± 0.0078 |
| GTGGGATTGC | 0.9959 ± 0.0067 |
| GTGGGCCGCG | 0.979 ± 0.029 |
| GTGGGCGATT | 1.01 ± 0.024 |
| GTGGGGCGCC | 1.01 ± 0.03 |
| GTGGGGGTGC | 0.987 ± 0.033 |
| GTGGGGTAAA | 1.01 ± 0.055 |
| GTGGGGTACT | 0.9612 ± 0.0055 |
| GTGGGGTTGC | 0.984 ± 0.021 |
| GTGGGTAACT | 0.998 ± 0.041 |
| GTGGGTACGG | 1 ± 0.028 |
| GTGGGTATTG | 1 ± 0.02 |
| GTGGGTCATA | 0.953 ± 0.099 |
| GTGGGTCCTA | 0.9891 ± 0.0013 |
| GTGGGTCGGG | 1.006 ± 0.0049 |
| GTGGGTTCGC | 1 ± 0.043 |

| Sequence | switch fluorescence ratio |
| --- | --- |
| GTGGGTTGGC | 1.03 ± 0.043 |
| GTGGGTTGTA | 1.01 ± 0.05 |
| GTGGTAACTT | 1.007 ± 0.0082 |
| GTGGTAAGCT | 1.02 ± 0.049 |
| GTGGTACACG | 1.01 ± 0.026 |
| GTGGTACGTG | 1 ± 0.064 |
| GTGGTAGGGC | 1.021 ± 0.001 |
| GTGGTAGTGG | 0.949 ± 0.023 |
| GTGGTCCGGG | 0.979 ± 0.037 |
| GTGGTCCGTG | 0.962 ± 0.0097 |
| GTGGTCGTGC | 0.9761 ± 0.0041 |
| GTGGTGAGGC | 1.001 ± 0.0055 |
| GTGGTGAGTG | 0.97 ± 0.021 |
| GTGGTGGCTG | 0.976 ± 0.048 |
| GTGGTGGGTC | 0.975 ± 0.026 |
| GTGGTGGGTG | 1 ± 0.091 |
| GTGGTTAAGA | 0.9961 ± 0.002 |
| GTGGTTCTGA | 1.03 ± 0.024 |
| GTGGTTCTGG | 1.01 ± 0.018 |
